Experimental data as given in patent US20170296629A1, “INHIBITOR OF EXTRACELLULAR TRAP FORMATION IN LEUKOCYTE” (KEIO UNIVERSITY, priority 2014, published 2017).

Tested on: Healthy Individual's Peripheral Blood Neutrophil
Assay: Inhibition of NET formation in neutrophils pretreated with lactoferrin-derived peptide fragment; DNA concentration in culture supernatant (Picogreen)
Assay type: cell-based
Conditions: human neutrophils, pretreatment at room temperature for 30 minutes
Method: Effect of Inhibiting NET Formation Stimulation of Healthy Individual's Peripheral Blood Neutrophil by Pretreatment with Lactoferrin-derived Peptide Fragment
For each round of experiment, 15 ml to 20 ml of peripheral blood was collected from a healthy individual by using an EDTA-containing syringe (with a needle of 18 to 22 G). After collecting the blood, in a 15 ml conical tube charged with 3 ml of Mono-Poly Resolving Medium (Cat No. DSBN100, DS Pharma Biochemical Co., Ltd.), 3.5 ml of the whole blood was gently layered over a lower layer of Mono-Poly Resolving Medium. The resultant 15 ml conical tube was centrifuged with a swing centrifuge at room temperature (15 to 30° C.) at 400×g for 20 minutes, and the conical tube was then gently taken out. An uppermost brown plasma layer and a lymphocyte/monocyte layer thereunder were removed with an aspirator or the like. In addition, a transparent layer under the lymphocyte/monocyte layer was removed as much as possible. […]
A culture supernatant was collected, centrifuged at 200×g for 10 minutes, and the thus obtained supernatant was transferred to a fresh microcentrifuge tube. The amount of DNA was measured by using Picogreen dsDNA assay reagent (P11496 Invitrogen) in accordance with the accompanying protocol.

B1: human lactoferrin: Human lactoferrin protein, Genbank NP_001186078.1 (protein, listed as Homo sapiens)
chain: MRKVRGPPVSCIKRDSPIQCIQAIAENRADAVTLDGGFIYEAGLAPYKLRPVAAEVYGTERQPRTHYYAVAVVKKGGSFQLNELQGLKSCHTGLRRTAGWNVPIGTLRPFLNWTGPPEPIEAAVARFFSASCVPGADKGQFPNLCRLCAGTGENKCAFSSQEPYFSYSGAFKCLRDGAGDVAFIRESTVFEDLSDEAERDEYELLCPDNTRKPVDKFKDCHLARVPSHAVVARSVNGKEDAIWNLLRQAQEKFGKDKSPKFQLFGSPSGQKDLLFKDSAIGFSRVPPRIDSGLYLGSGYFTAIQNLRKSEEEVAARRARVVWCAVGEQELRKCNQWSGLSEGSVTCSSASTTEDCIALVLKGEADAMSLDGGYVYTAGKCGLVPVLAENYKSQQSSDPDPNCVDRPVEGYLAVAVVRRSDTSLTWNSVKGKKSCHTAVDRTAGWNIPMGLLFNQTGSCKFDEYFSQSCAPGSDPRSNLCALCIGDEQGENKCVPNSNERYYGYTGAFRCLAENAGDVAFVKDVTVLQNTDGNNNEAWAKDLKLADFALLCLDGKRKPVTEARSCHLAMAPNHAVVSRMDKVERLKQVLLHQQAKFGRNGSDCPDKFCLFQSETKNLLFNDNTECLARLHGKTTYEKYLGPQYVAGITNLKKCSTSPLLEACEFLRK
DNA concentration in the culture supernatant (release of the DNA due to the NET): reduced in a concentration-dependent manner
